This note sets out measurements from publication PMC8792056 (2022).

To fix the notation:
B1: DNAJB14-FL-FLAG [human] / DNAJB12-FL-mOrange [human] (parent complex)
chain 1: MEGNRDEAEKCVEIAREALNAGNREKAQRFLQKAEKLYPLPSARALLEIIMKNGSTAGNSPHCRKPSGSGDQSKPNCTKDSTSGSGEGGKGYTKDQVDGVLSINKCKNYYEVLGVTKDAGDEDLKKAYRKLALKFHPDKNHAPGATDAFKKIGNAYAVLSNPEKRKQYDLTGNEEQACNHQNNGRFNFHRGCEADITPEDLFNIFFGGGFPSGSVHSFSNGRAGYSQQHQHRHSGHEREEERGDGGFSVFIQLMPIIVLILVSLLSQLMVSNPPYSLYPRSGTGQTIKMQTENLGVVYYVNKDFKNEYKGMLLQKVEKSVEEDYVTNIRNNCWKERQQKTDMQYAAKVYRDDRLRRKADALSMDNCKELERLTSLYKGG
chain 2: MESNKDEAERCISIALKAIQSNQPDRALRFLEKAQRLYPTPRVRALIESLNQKPQTAGDQPPPTDTTHATHRKAGGTDAPSANGEAGGESTKGYTAEQVAAVKRVKQCKDYYEILGVSRGASDEDLKKAYRRLALKFHPDKNHAPGATEAFKAIGTAYAVLSNPEKRKQYDQFGDDKSQAARHGHGHGDFHRGFEADISPEDLFNMFFGGGFPSSNVHVYSNGRMRYTYQQRQDRRDNQGDGGLGVFVQLMPILILILVSALSQLMVSSPPYSLSPRPSVGHIHRRVTDHLGVVYYVGDTFSEEYTGSSLKTVERNVEDDYIANLRNNCWKEKQQKEGLLYRARYFGDTDMYHRAQKMGTPSCSRLSEVQASLHG

Variants of B1 are the subject of this test. Nature of the test: co-IP (IP: FLAG, WB: mOrange), densitometry with Fiji; HEK293T cells; n = 3 biologically independent samples; parent: 2.7; read off a plot.
chain 1 H136Q: the response was ~7.2 [ORANGE]/[FLAG].
